For 27 molecules, Kd results are on record in PMC10786891, “Massively parallel profiling of RNA-targeting CRISPR-Cas13d”.

What is called Kd is the equilibrium constant for the complex coming apart.

To fix the notation:
T1: EsCas13d, nuclease-dead (Eubacterium siraeum, UniProt B0MS50, R295A;H300A;R849A;H854A)
T1 sequence: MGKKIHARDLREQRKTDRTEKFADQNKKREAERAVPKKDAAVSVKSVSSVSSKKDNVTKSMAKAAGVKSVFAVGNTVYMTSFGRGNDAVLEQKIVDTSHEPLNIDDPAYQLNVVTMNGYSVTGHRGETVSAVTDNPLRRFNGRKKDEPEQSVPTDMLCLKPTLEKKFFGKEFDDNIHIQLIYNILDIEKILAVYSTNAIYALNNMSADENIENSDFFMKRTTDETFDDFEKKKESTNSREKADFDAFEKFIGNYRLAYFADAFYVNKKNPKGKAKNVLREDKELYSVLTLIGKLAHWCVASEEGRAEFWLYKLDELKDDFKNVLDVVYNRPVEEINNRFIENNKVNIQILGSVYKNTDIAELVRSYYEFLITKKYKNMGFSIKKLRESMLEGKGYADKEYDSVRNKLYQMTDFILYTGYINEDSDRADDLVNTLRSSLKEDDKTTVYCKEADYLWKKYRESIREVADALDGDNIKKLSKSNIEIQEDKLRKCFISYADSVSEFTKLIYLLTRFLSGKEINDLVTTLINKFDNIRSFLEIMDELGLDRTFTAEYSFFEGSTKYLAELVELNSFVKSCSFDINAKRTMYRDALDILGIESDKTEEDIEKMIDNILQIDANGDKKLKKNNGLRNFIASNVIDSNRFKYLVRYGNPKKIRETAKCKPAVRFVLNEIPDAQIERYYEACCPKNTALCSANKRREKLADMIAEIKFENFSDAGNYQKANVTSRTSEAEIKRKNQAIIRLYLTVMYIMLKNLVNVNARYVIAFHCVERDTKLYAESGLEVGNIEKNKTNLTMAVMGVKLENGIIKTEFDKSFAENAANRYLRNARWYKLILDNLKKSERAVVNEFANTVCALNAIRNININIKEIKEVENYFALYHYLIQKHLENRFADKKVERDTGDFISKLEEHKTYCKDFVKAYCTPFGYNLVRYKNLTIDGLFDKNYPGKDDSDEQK

B1: target 1 C7U,G17U (mixed)
RNA 1: CACCCGUGCAAAAAUGCAGGGGUCUAAAACUGAGCGGAUAACCUCUCUAUGG
RNA 2: GGGAAUGGAUCCACAUCUACGAAUUCGUACCAUAUAGAGGUUAUUCGCUCACCGAGAUCGGAAGAGCACACGU
B2: target 1 C6G,A20U (mixed)
RNA 1: CACCCGUGCAAAAAUGCAGGGGUCUAAAACUGAGCGGAUAACCUCUCUAUGG
RNA 2: GGGAAUGGAUCCACAUCUACGAAUUCGUACCUUAGAGAGGUUAUCGGCUCACCGAGAUCGGAAGAGCACACGU
B3: target 1 C2A,U8C (mixed)
RNA 1: CACCCGUGCAAAAAUGCAGGGGUCUAAAACUGAGCGGAUAACCUCUCUAUGG
RNA 2: GGGAAUGGAUCCACAUCUACGAAUUCGUACCAUAGAGAGGUUACCCGCUAACCGAGAUCGGAAGAGCACACGU
B4: target 1 insA 3' of 8,insU 3' of 5 (mixed)
RNA 1: CACCCGUGCAAAAAUGCAGGGGUCUAAAACUGAGCGGAUAACCUCUCUAUGG
RNA 2: GGGAAUGGAUCCACAUCUACGAAUUCGUACCAUAGAGAGGUUAUACCGUCUCACCGAGAUCGGAAGAGCACACGU
B5: target 1 insU 3' of 20,insA 3' of 5 (mixed)
RNA 1: CACCCGUGCAAAAAUGCAGGGGUCUAAAACUGAGCGGAUAACCUCUCUAUGG
RNA 2: GGGAAUGGAUCCACAUCUACGAAUUCGUACCAUUAGAGAGGUUAUCCGACUCACCGAGAUCGGAAGAGCACACGU
B6: target 1 insC 3' of 20,insU 3' of 14 (mixed)
RNA 1: CACCCGUGCAAAAAUGCAGGGGUCUAAAACUGAGCGGAUAACCUCUCUAUGG
RNA 2: GGGAAUGGAUCCACAUCUACGAAUUCGUACCACUAGAGAUGGUUAUCCGCUCACCGAGAUCGGAAGAGCACACGU
B7: target 1 del5,del15 (mixed)
RNA 1: CACCCGUGCAAAAAUGCAGGGGUCUAAAACUGAGCGGAUAACCUCUCUAUGG
RNA 2: GGGAAUGGAUCCACAUCUACGAAUUCGUACCAUAGAAGGUUAUCCCUCACCGAGAUCGGAAGAGCACACGU
B8: target 1 insC 3' of 22,insC 3' of 18 (mixed)
RNA 1: CACCCGUGCAAAAAUGCAGGGGUCUAAAACUGAGCGGAUAACCUCUCUAUGG
RNA 2: GGGAAUGGAUCCACAUCUACGAAUUCGUACCCAUACGAGAGGUUAUCCGCUCACCGAGAUCGGAAGAGCACACGU
B9: target 1 insC 3' of 16,insG 3' of 3 (mixed)
RNA 1: CACCCGUGCAAAAAUGCAGGGGUCUAAAACUGAGCGGAUAACCUCUCUAUGG
RNA 2: GGGAAUGGAUCCACAUCUACGAAUUCGUACCAUAGACGAGGUUAUCCGCUGCACCGAGAUCGGAAGAGCACACGU
B10: target 1 insA 3' of 15,insG 3' of 14 (mixed)
RNA 1: CACCCGUGCAAAAAUGCAGGGGUCUAAAACUGAGCGGAUAACCUCUCUAUGG
RNA 2: GGGAAUGGAUCCACAUCUACGAAUUCGUACCAUAGAGAAGGGUUAUCCGCUCACCGAGAUCGGAAGAGCACACGU
B11: target 1 insU 3' of 15,insG 3' of 9 (mixed)
RNA 1: CACCCGUGCAAAAAUGCAGGGGUCUAAAACUGAGCGGAUAACCUCUCUAUGG
RNA 2: GGGAAUGGAUCCACAUCUACGAAUUCGUACCAUAGAGUAGGUUAGUCCGCUCACCGAGAUCGGAAGAGCACACGU
B12: target 1 U10G,U11C (mixed)
RNA 1: CACCCGUGCAAAAAUGCAGGGGUCUAAAACUGAGCGGAUAACCUCUCUAUGG
RNA 2: GGGAAUGGAUCCACAUCUACGAAUUCGUACCAUAGAGAGGCGAUCCGCUCACCGAGAUCGGAAGAGCACACGU
B13: target 1 insG 3' of 19,insA 3' of 19 (mixed)
RNA 1: CACCCGUGCAAAAAUGCAGGGGUCUAAAACUGAGCGGAUAACCUCUCUAUGG
RNA 2: GGGAAUGGAUCCACAUCUACGAAUUCGUACCAUGAAGAGAGGUUAUCCGCUCACCGAGAUCGGAAGAGCACACGU
B14: target 1 insU 3' of 15,insG 3' of 4 (mixed)
RNA 1: CACCCGUGCAAAAAUGCAGGGGUCUAAAACUGAGCGGAUAACCUCUCUAUGG
RNA 2: GGGAAUGGAUCCACAUCUACGAAUUCGUACCAUAGAGUAGGUUAUCCGCGUCACCGAGAUCGGAAGAGCACACGU
B15: target 1 insG 3' of 22,insA 3' of 19 (mixed)
RNA 1: CACCCGUGCAAAAAUGCAGGGGUCUAAAACUGAGCGGAUAACCUCUCUAUGG
RNA 2: GGGAAUGGAUCCACAUCUACGAAUUCGUACGCAUAAGAGAGGUUAUCCGCUCACCGAGAUCGGAAGAGCACACGU
B16: target 1 C6A,A14U (mixed)
RNA 1: CACCCGUGCAAAAAUGCAGGGGUCUAAAACUGAGCGGAUAACCUCUCUAUGG
RNA 2: GGGAAUGGAUCCACAUCUACGAAUUCGUACCAUAGAGUGGUUAUCAGCUCACCGAGAUCGGAAGAGCACACGU
B17: target 1 insU 3' of 14,insG 3' of 3 (mixed)
RNA 1: CACCCGUGCAAAAAUGCAGGGGUCUAAAACUGAGCGGAUAACCUCUCUAUGG
RNA 2: GGGAAUGGAUCCACAUCUACGAAUUCGUACCAUAGAGAUGGUUAUCCGCUGCACCGAGAUCGGAAGAGCACACGU
B18: target 1 C2U,U19G (mixed)
RNA 1: CACCCGUGCAAAAAUGCAGGGGUCUAAAACUGAGCGGAUAACCUCUCUAUGG
RNA 2: GGGAAUGGAUCCACAUCUACGAAUUCGUACCAGAGAGAGGUUAUCCGCUUACCGAGAUCGGAAGAGCACACGU
B19: target 1 A1U,G5U (mixed)
RNA 1: CACCCGUGCAAAAAUGCAGGGGUCUAAAACUGAGCGGAUAACCUCUCUAUGG
RNA 2: GGGAAUGGAUCCACAUCUACGAAUUCGUACCAUAGAGAGGUUAUCCUCUCUCCGAGAUCGGAAGAGCACACGU
B20: target 1 C6A,A14C (mixed)
RNA 1: CACCCGUGCAAAAAUGCAGGGGUCUAAAACUGAGCGGAUAACCUCUCUAUGG
RNA 2: GGGAAUGGAUCCACAUCUACGAAUUCGUACCAUAGAGCGGUUAUCAGCUCACCGAGAUCGGAAGAGCACACGU
B21: target 1 insU 3' of 18,insA 3' of 4 (mixed)
RNA 1: CACCCGUGCAAAAAUGCAGGGGUCUAAAACUGAGCGGAUAACCUCUCUAUGG
RNA 2: GGGAAUGGAUCCACAUCUACGAAUUCGUACCAUAUGAGAGGUUAUCCGCAUCACCGAGAUCGGAAGAGCACACGU
B22: target 1 insG 3' of 9,insG 3' of 2 (mixed)
RNA 1: CACCCGUGCAAAAAUGCAGGGGUCUAAAACUGAGCGGAUAACCUCUCUAUGG
RNA 2: GGGAAUGGAUCCACAUCUACGAAUUCGUACCAUAGAGAGGUUAGUCCGCUCGACCGAGAUCGGAAGAGCACACGU
B23: target 1 del16,del19 (mixed)
RNA 1: CACCCGUGCAAAAAUGCAGGGGUCUAAAACUGAGCGGAUAACCUCUCUAUGG
RNA 2: GGGAAUGGAUCCACAUCUACGAAUUCGUACCAAGGAGGUUAUCCGCUCACCGAGAUCGGAAGAGCACACGU
B24: target 1 insA 3' of 22,insC 3' of 9 (mixed)
RNA 1: CACCCGUGCAAAAAUGCAGGGGUCUAAAACUGAGCGGAUAACCUCUCUAUGG
RNA 2: GGGAAUGGAUCCACAUCUACGAAUUCGUACACAUAGAGAGGUUACUCCGCUCACCGAGAUCGGAAGAGCACACGU
B25: target 1 insG 3' of 8,insG 3' of 8 (mixed)
RNA 1: CACCCGUGCAAAAAUGCAGGGGUCUAAAACUGAGCGGAUAACCUCUCUAUGG
RNA 2: GGGAAUGGAUCCACAUCUACGAAUUCGUACCAUAGAGAGGUUAUGGCCGCUCACCGAGAUCGGAAGAGCACACGU
B26: target 1 insC 3' of 13,insG 3' of 2 (mixed)
RNA 1: CACCCGUGCAAAAAUGCAGGGGUCUAAAACUGAGCGGAUAACCUCUCUAUGG
RNA 2: GGGAAUGGAUCCACAUCUACGAAUUCGUACCAUAGAGAGCGUUAUCCGCUCGACCGAGAUCGGAAGAGCACACGU
B27: target 1 C7A,C21U (mixed)
RNA 1: CACCCGUGCAAAAAUGCAGGGGUCUAAAACUGAGCGGAUAACCUCUCUAUGG
RNA 2: GGGAAUGGAUCCACAUCUACGAAUUCGUACUAUAGAGAGGUUAUACGCUCACCGAGAUCGGAAGAGCACACGU

The target of the data set is T1, EsCas13d, nuclease-dead. The data set is described as follows: crRNA (strand 1, pre-loaded); Mg2+; 40 mM Tris-HCl pH 7.5, 150 mM NaCl, 6 mM MgCl2, 1 mM DTT, 0.1% Tween-20, 0.2 mg/ml BSA; 25 C; 10 min per concentration, then washed. The settings on record: tags: His6-TwinStrep-SUMO cleaved; N-terminal SNAP kept (SNAP-Surface 488); label: 3' end held by stalled T7 RNA polymerase.
As for B1, the dissociation constant (Kd) was found to be 19.7 ± 1.8 nM.

In the case of B2, binding was characterised by a dissociation constant (Kd) of 40.5 ± 2.5 nM. This Kd lies about 2.1-fold higher than the previous one.

Consider B3, for which binding was characterised by a dissociation constant (Kd) of 5.2 ± 0.4 nM.

With B4, the equilibrium dissociation constant (Kd) stood at 22 ± 1.8 nM. Against the preceding molecule, the Kd is about 4.2-fold higher.

With B5, binding was characterised by a dissociation constant (Kd) of 12.2 ± 0.9 nM.

B6 came in with a Kd of 5.5 ± 0.8 nM.

B7: binding was characterised by a dissociation constant (Kd) of 27.3 ± 2.6 nM.

With B8, binding was characterised by a dissociation constant (Kd) of 41 ± 16 nM.

B9: binding was put at a Kd of 50 ± 8 nM.

In turn, B10 returned a dissociation constant Kd of 10.6 ± 1.2 nM. Compared with the last molecule, the Kd is about 4.7-fold lower.

Take B11: the Kd was determined as 13 ± 0.6 nM.

B12 registered a dissociation constant (Kd) of 14.1 ± 0.6 nM.

In turn, B13 showed an equilibrium dissociation constant (Kd) of 50 ± 7 nM. Against the preceding molecule, the Kd is about 3.5-fold higher.

B14 yielded a Kd of 13.5 ± 1.3 nM.

As for B15, the Kd turned out to be 63 ± 10 nM. Against the preceding molecule, the Kd is about 4.7-fold higher.

B16 had a Kd of 54 ± 9 nM.

As for B17, the Kd is 34 ± 4 nM.

B18 yielded a dissociation constant (Kd) of 52 ± 4 nM.

B19 yielded a Kd of 73 ± 11 nM.

For the molecule B20, the affinity, expressed as Kd, was 11.7 ± 0.5 nM.

Take B21: the affinity, expressed as Kd, was 20.9 ± 1.7 nM. Against the preceding molecule, the Kd is about 1.8-fold higher.

In turn, B22 had an equilibrium dissociation constant (Kd) of 17.2 ± 1 nM. The Kd values of the last two molecules are within 1.5-fold of each other.

For B23, binding was put at a Kd of 73 ± 20 nM.

The molecule B24 had a Kd of 14.4 ± 0.6 nM. This Kd is about 5.1-fold lower than that of the molecule before.

As for B25, the dissociation constant (Kd) is 45.3 ± 3.2 nM.

Take B26: the Kd came to 11.4 ± 0.5 nM.

As for B27, the Kd stood at 6.56 ± 0.31 nM.
